For the experiment, the target named is T1, GST-tubby-F (GST fused to full-length mouse tubby) (Schistosoma japonicum; mouse, UniProt P50586 1-505).
T1 construct: mature; Expressed in E. coli BL21(DE3) from pGEX-2T; not shown: glutathione S-transferase of pGEX-2T (Schistosoma japonicum)
T1 sequence (looked up): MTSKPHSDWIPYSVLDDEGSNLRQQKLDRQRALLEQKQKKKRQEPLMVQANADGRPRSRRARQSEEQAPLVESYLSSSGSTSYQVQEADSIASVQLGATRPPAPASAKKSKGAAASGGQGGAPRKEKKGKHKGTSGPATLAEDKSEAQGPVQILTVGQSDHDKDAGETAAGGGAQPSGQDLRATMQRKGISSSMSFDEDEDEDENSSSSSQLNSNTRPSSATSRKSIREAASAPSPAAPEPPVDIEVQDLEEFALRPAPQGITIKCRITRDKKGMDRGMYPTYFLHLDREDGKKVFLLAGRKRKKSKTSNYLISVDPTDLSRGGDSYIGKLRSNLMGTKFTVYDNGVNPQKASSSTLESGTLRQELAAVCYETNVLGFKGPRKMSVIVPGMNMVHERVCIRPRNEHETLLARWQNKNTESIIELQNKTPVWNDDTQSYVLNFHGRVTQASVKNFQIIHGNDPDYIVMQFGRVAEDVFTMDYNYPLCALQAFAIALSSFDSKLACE
In words: GST pull-down: GST-tubby with lysate of cells expressing the FLAG-tagged protein, glutathione resin, Western blot with anti-FLAG mAb. In general terms: Immunoblotting shows a protein as a band on a membrane.

Consider one molecule from patent publication US20110207628A1 (UNIVERSITY OF MIAMI, published 2011).

B1: FLAG-tagged Tulp3 (full-length mouse Tulp3 with N-terminal FLAG tag) (other)
chain: DYKDDDDKMEAARCAPGPRGDSAFDDETLRLRQLKLDNQRALLEKKQRKKRLEPLMVQPNPEARLRRLKPRGSEEHTPLVDPQMPRSDVILHGIDGPAAFLKPEAQDLESKPQVLSVGSPAPEEGTEGSADGESPEETAPKPDLQEILQKHGILSSVNYDEEPDKEEDEGGNLSSPSARSEESAAASQKAASETGASGVTAQQGDAQLGEVENLEDFAYSPAPRGVTVKCKVTRDKKGMDRGLFPTYYMHLEREENRKIFLLAGRKRKKSKTSNYLVSTDPTDLSREGESYIGKLRSNLMGTKFTVYDHGVNPVKAQGLVEKAHTRQELAAICYETNVLGFKGPRKMSVIIPGMNMNHERIPFRPRNEHESLLSKWQNKSMENLIELHNKAPVWNDDTQSYVLNFHGRVTQASVKNFQIVHGNDPDYIVMQFGRVADDVFTLDYNYPLCALQAFAIGLSSFDSKLACE
notes: mature; Expressed from pcDNA3 in Neuro-2a cells; used as cell lysate or on membrane vesicles
Consider B1, for which the binding result was “no binding”.
